Experiments:
[1] = target: Phosphomannose isomerase from Thermococcus kodakarensis, expressed from pET-16b (Thermococcus kodakarensis); assay: SEC; AKTA FPLC, XK50-60 column with 1 L Superdex 75 Prep-Grade resin, calibrated with the GE Healthcare Low Molecular Weight kit; elution at double the expected MW; self-association (dimer)
[2] = target: the molecule itself; assay: as above

Row | Molecule | stoichiometry N [1] | stoichiometry N [2]
1 | Phosphomannose isomerase from Thermococcus kodakarensis, expressed from pET-16b (enzyme) | 2 | 
2 | Phosphomannose isomerase from Thermococcus barophilus, expressed from pET-16b (enzyme, Phosphomannose isomerase (PMI) of Thermococcus barophilus, gene TERMP_00744, synthetic codon-optimized gene; Construct for neutron scattering; removal of the tag is not mentioned; also called Tba PMI; PMI) MKAEIKEFIDRGTYRKAPLFEGELPEGSYAQIVEIKPKQTVPKHYHEKQYELFYIISGQAKLGIEEREYDAKPGDIFLVKPKTVHWVVNKKEEPFRLFVIKLNYFGDDSVWLE |  | 2

— paper PMC9369236, “Unravelling the Adaptation Mechanisms to High Pressure in Proteins” (International Journal of Molecular Sciences, 2022)
